Measured values as given in publication PMC12443476 (eLife, 2025).

Molecular target: T1, biotinylated Tom70 (109-600) with N-terminal AVI tag (human, UniProt O94826 109-600, biotin (AVI tag, by co-expressed BirA))
T1 construct: also called biotin-Tom70; immobilized Tom70
T1 sequence: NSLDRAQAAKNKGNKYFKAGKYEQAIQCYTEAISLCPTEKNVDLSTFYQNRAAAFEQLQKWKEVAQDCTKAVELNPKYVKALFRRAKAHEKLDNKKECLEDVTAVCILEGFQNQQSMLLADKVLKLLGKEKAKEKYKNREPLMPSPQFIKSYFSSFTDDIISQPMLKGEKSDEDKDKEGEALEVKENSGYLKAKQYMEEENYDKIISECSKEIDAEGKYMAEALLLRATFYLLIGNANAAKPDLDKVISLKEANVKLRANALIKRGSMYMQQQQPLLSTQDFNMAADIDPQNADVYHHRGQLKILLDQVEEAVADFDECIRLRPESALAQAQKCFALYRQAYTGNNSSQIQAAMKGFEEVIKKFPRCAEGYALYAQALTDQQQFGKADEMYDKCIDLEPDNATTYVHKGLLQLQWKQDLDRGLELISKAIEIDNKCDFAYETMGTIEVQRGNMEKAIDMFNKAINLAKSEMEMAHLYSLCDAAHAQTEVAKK
Assay: SPR
Details: both partners purified

B1: Orf9b T60A peptide (peptide)
peptide: IILRLGSPLSLNMARKALNSLEDKAFQ
B1: binds.
